Measurements: article PMC3314968, “The UBAP1 Subunit of ESCRT-I Interacts with Ubiquitin via a SOUBA Domain” (Structure(London, England:1993), 2012)

Target: T1, monoubiquitin (SIGMA U6253) (UniProt P0CG48 1-76)
T1 construct: ubiquitin, the 76-residue cut product of a ubiquitin precursor; source: bought: SIGMA U6253
Test: ITC; Microcal ITC200; 20 mM Tris-HCl (pH 7.5), 100 mM NaCl, 1 mM TCEP; SOUBA domain at 150 μM in the cell, 38 injections of monoubiquitin at 3 mM; single set of independent sites
Conditions: both partners purified

Kd: ~70 µM
B1: human UBAP1 SOUBA domain (389-502), wild-type (domain or fragment, UniProt Q9NZ09 389-502, looked up)
chain: SPSERQCVETVVNMGYSYECVLRAMKKKGENIEQILDYLFAHGQLCEKGFDPLLVEEALEMHQCSEEKMMEFLQLMSKFKEMGFELKDIKEVLLLHNNDQDNALEDLMARAGAS
notes: UBAP1, human, residues 389-502 (SOUBA domain); The His6 tag is followed by a TEV protease cleavage site; whether it was cut is told in the Supplemental Experimental Procedures; Used unlabeled or 15N- (13C/15N-) labeled in NMR; also called UBAP1(389-502); UBAP1_389-502; source: recombinant, from the pOPTH(tev) expression vector, purified (details in Supplemental Experimental Procedures)
